Assay [1] has as its target T1, SARS-CoV-2 RBD (residues Arg319–Phe541) (SARS-CoV-2, UniProt P0DTC2). Put plainly: cell-based or functional assay.
Assay [2] deals with T1, SARS-CoV-2 RBD (residues Arg319–Phe541). Put plainly: SPR. The note with it: both partners purified.

B1: P5A-1B9 (full-length IgG) (antibody, V domains shown)
VH: QVQLQESGPGLVKPSETLSLTCTVSGGSISSYYWSWIRQPPGKGLEWIGYISYSGSTNYNPSLKSRVTISLDTSKNQFSLKLSSVTAADTAVYYCASNGQYYDILTGQPPDYWYFDLWGRGTLVTVSS
VL: not shown
For B1, the other in assay [1] worked out at 43.8%. In addition, the dissociation constant (Kd) in assay [2] turned out to be 0.75 nM.

B2: P5A-3C12 (full-length IgG) (antibody, V domains shown)
VH: QITLKESGPTLVKPTQTLTLTCTFSGFSLSTSGVGVGWIRQPPGKALEWLALIYWDDDKRYSPSLKSRLTITKDTSKNQVVLTMTNMDPVDTATYYCAHSLFLTVGYSSSWSPFDYWGQGTLVTVSS
VL: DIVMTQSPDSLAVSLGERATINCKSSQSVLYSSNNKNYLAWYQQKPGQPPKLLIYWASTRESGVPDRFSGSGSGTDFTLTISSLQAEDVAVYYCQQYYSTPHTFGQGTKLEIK
Regarding B2, the other in assay [1] worked out at 54.5%. This molecule also gave a dissociation constant Kd in assay [2] of 1.03 nM.

B3: P5A-2G9 (full-length IgG) (antibody, V domains shown)
VH: QVQLVESGGGVVQPGRSLRLSCAASGFTFSSYGMHWVRQAPGKGLEWVAVIWYDGSNKYYADSVKGRFTISRDNSKNTLYLQMNSLRAEDTAVYYCARWFHTGGYFDYWGQGTLVTVSS
VL: QPVLTQPPSSSASPGESARLTCTLPSDINVSSYNIYWYQQKPGSPPRYLLYYYSDSDKGQGSGVPSRFSGSKDASANTGILLISGLQSEDEADYYCMIWPSNALYVFGTGTKVTVL
On to B3, for which the other in assay [1] turned out to be 84.9%. Moreover, the Kd in assay [2] is 6.98 nM.

B4: P5A-2G7 (full-length IgG) (antibody, V domains shown)
VH: QVQLQESGPGLVKPSETLSLTCTVSGDSVSSGSYYWSWIRQPPGKGLEWIGYIYYSGSTNYNPSLKSRVTISVDTSKNQFSLKLSSVTAADTAVYYCARERCYYGSGRAPRCVWFDPWGQGTLVTVSS
VL: QSALTQPASVSGSPGQSITISCTGTSSDVGGYNYVSWYQQHPGKAPKLMIYDVSNRPSGVSNRFSGSKSGNTASLTISGLQAEDEADYYCSSYTSSSTLVVFGGGTKLTVL
In the case of B4, the other in assay [1] was 57.2%. In addition, binding in assay [2] was put at a Kd of 3.55 nM.

B5: P5A-1B6 (full-length IgG) (antibody, V domains shown)
VH: QVQLVESGGGVVQPGRSLRLSCAASGFTFSSYAMHWVRQAPGKGLEWVAVISYDGSNKYYADSVKGRFTISRDNSKNTLYLQMNSLRAEDTAVYYCARDGQAITMVQGVIGPPFDYWGQGTLVTVSS
VL: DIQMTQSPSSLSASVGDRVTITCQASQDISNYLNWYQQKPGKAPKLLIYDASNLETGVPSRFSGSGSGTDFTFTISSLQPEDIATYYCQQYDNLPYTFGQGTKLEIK
Regarding B5, the other in assay [1] was 76%. This molecule yielded a Kd in assay [2] of 1.01 nM.

B6: P2B-1A1 (full-length IgG) (antibody, V domains shown)
VH: QVQLQESGPGLVKPSETLSLTCTVSGGSISSYYWSWIRQPPGKGLEWIGYIYYSGSTNYNPSLKSRVTISVDTSKKQFSLKLSSVTAADTAVYYCARLERDWPLDAFDIWGQGTMVTVSS
VL: QSALTQPASVSGSPGQSITISCTGTSSDVGGYNYVSWYQQHPGKAPKFMIYDVSKRPSGVSNRFSGSKSGNTASLTISGLQAEDEADYYCSSYTSNNTFAFGGGTKLTVL
Regarding B6, the other in assay [1] is -9.7%. Besides, binding in assay [2] was characterised by a dissociation constant (Kd) of 27 nM.

B7: P2B-1A10 (full-length IgG) (antibody, V domains shown)
VH: EVQLVESGGGLIQPGGSLRLSCAASGFTVSSNYMSWVRQAPGKGLEWVSVIYSGGSTYYADSVKGRFTISRDNSKNTLYLQMNSLRAEDTAVYYCAREGPKSITGTAFDIWGQGTIVTVSS
VL: DIQMTQSPSSLSASVGDRVTITCQASQDISNYFNWYQQKPGKAPKLLIYDASNLETGVPSRFSGSGSGTDFTFTISSLQPEDIATYYCQQYDNLPMYTFGQGTKLEIK
As for B7, in assay [1], the other turned out to be 81.8%. Binding in assay [2] was characterised by a dissociation constant (Kd) of 50.8 nM.

B8: P5A-2F11 (full-length IgG) (antibody, V domains shown)
VH: QVQLVQSGAEVKKPGASVKVSCKASGYTFTSYDINWVRQATGQGLEWMGWMNPNSGNTGYAQKFQGRVTMTRNTSISTAYMELSSLRSEDTAVYYCARYIVVVPAAKGFDPWGQGTLVTVSS
VL: not shown
On to B8, for which the other in assay [1] worked out at 56.2%. For the same molecule, the dissociation constant (Kd) in assay [2] was found to be 5.33 nM.

B9: P5A-1B8 (full-length IgG) (antibody, V domains shown)
VH: EVQLVESGGGLIQPGGSLRLSCAASGFTVSSNYMSWVRQAPGKGLEWVSVIYPGGSTFYADSVKGRFTISRDNSKNTLYLQMNSLRAEDTAVYYCARETLAFDYWGQGTLVTVSS
VL: DIQLTQSPSFLSASVGDRVTITCRASQGISSYLAWYQQKPGKAPKLLIYAASTLQSGVPSRFSGSGSGTEFTLTISSLQPEDFATYYCQQLNSYPPAFGGGTKVEIK
Turning to B9, the other in assay [1] was found to be 79.6%. The affinity in assay [2], expressed as Kd, was 1.09 nM.

What is called Kd is a measure of binding affinity in units of concentration. High values mean a looser complex, low ones a tighter complex.

The values are drawn from paper PMC7966918 (Cell Research, 2021).
